# Measured values published in patent publication US11242370B2, “Neuregulin-4 compounds and methods of use” (Eli Lilly and Company, priority 2019, dated 2022).
# Positions count from the first letter of the chain named. Numbers in names are those of the source. Marks after values point to notes of the source that are not given here.
# T1: HER4 receptor extracellular domain (ECD) (Homo sapiens, UniProt Q15303)
# T1 construct: C-terminal His-tagged HER4 receptor extracellular domain (ECD) construct
# T1 sequence (Q15303 26-651 limits assumed): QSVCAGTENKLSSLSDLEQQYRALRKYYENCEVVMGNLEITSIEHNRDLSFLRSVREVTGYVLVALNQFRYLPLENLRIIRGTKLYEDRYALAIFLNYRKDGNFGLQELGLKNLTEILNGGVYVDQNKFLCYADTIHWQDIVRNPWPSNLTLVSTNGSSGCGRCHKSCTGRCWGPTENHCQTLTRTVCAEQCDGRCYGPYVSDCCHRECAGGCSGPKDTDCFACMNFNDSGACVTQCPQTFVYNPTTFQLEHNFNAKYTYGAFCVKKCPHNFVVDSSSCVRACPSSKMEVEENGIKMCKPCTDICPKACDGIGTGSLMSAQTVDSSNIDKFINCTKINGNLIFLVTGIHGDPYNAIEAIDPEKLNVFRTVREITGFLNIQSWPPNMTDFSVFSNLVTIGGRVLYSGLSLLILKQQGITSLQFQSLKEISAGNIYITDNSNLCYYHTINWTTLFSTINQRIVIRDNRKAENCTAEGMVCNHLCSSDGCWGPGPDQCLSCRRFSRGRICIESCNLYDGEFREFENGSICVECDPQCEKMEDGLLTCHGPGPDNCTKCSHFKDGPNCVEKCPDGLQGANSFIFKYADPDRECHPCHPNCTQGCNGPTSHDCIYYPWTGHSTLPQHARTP
# B1: Example 10: NRG4 D1G/V22Q/E44K, (GGGGS)3 linker, SEQ ID NO: 19, fused to IgG Fc dimer SEQ ID NO: 6 and 7 (protein)
# chain 1: GGGGSGGGGSGGGGSGHEEPCGPSHKSFCLNGGLCYQIPTIPSPFCRCVENYTGARCEKVFL
# chain 2: ECPPCPAPPVAGPSVFLFPPKPKDTLMISRTPEVTCVVVDVSHEDPEVQFNWYVDGVEVHNAKTKPREEQFNSTFRVVSVLTVVHQDWLNGKEYKCKVSNKGLPAPIEKTISKTKGQPREPQVYTLPPSREEMTKNQVSLWCLVKGFYPSDIAVEWESNGQPENNYKTTPPVLDSDGSFFLYSKLTVDKSRWQQGNVFSCSVMHEALHNHYTQKSLSLSPG
# chain 3: B1 chain 2 with W141S, L143A, Y182V
# Legend:
# [1] = target: T1, HER4 receptor extracellular domain (ECD); assay: HER4/NRG-Fc binding assay (ELISA) for screening NRG4 variants
# Method: A binding assay is utilized to perform high-throughput screening of NRG4 variant Fc fusion proteins to HER4 receptor, to identify affinity-driven variants with the potential to increase receptor activation and signaling. ELISA plates are coated with an anti-His tag antibody at 2 μg/ml in PBS to facilitate the standardized capture of a C-terminal His-tagged HER4 receptor extracellular domain (ECD) construct after blocking the plate with 1% BSA/PBS/0.1% Tween 20 (HER4 ECD at 5 μg/ml). Saturating amounts of unpurified NRG4-Fc variants in expression media (Starting at 10 μg/ml with serial dilutions in 1% BSA/PBS/0.1% Tween 20) are incubated with the captured receptor for 1 hour. After washing, bound variant NRG4-Fc is detected colorimetrically with an anti-human Fc-specific alkaline phosphatase secondary detection reagent to quantitate binding. Incubation times of variant binding to receptor or durations of the subsequent wash steps are varied to further identify binding variants driven by affinity on-rate and off-rate, respectively.
# [2] = tested on: rats; assay: Toxicology study in rats, cardiac tissue inspection; details: single SC injection of 0.3 mg/kg
# [3] = Plasma pharmacokinetics in rats (toxicology studies); details: rat, in vivo, sc, 0.3 mg/kg
# Method: Example 11 is administered in a single 3 mg/kg dose to male and female monkeys by SC bolus injection.
# [4] = tested on: rat model of heart failure with reduced ejection fraction (HFrEF); assay: Rat MI model, captopril, Example 10 or combination, echocardiography; type: in vivo; set-up: Left Ventricle Diameter (end diastole): unit not given here
# Method: A nonclinical efficacy pharmacology study is conducted in a rat model of heart failure with reduced ejection fraction (HFrEF) to evaluate cardiac function and structure changes after captopril treatment, Example 10 treatment or combination treatment.
# The left coronary artery is permanently ligated. All rats are individually housed in a temperature and humidity controlled room and maintained on a 12 hour light/dark cycle. Two to three weeks after surgery, rats undergo transthoracic echocardiography for determination of ejection fraction (EF %) and left ventricle dimensions (LVD) using a Vevo 2100 ultrasound system. Rats are randomized across treatment groups according to EF % and LVD.
# Measurements of EF % and LVD are expressed as mean values±standard error (SE). Statistical analysis is performed with JMP® 13 software (SAS Institute, Inc.; Cary, N.C.) and Dunnett's Test is used for statistical comparisons across treatment groups. Statistical significance is accepted at P<0.05.
# Three weeks after MI surgery, animals are randomized to 2 treatment groups (Placebo or captopril, 2 g/L in drinking water, ad lib) according to EF % and LVD. Three weeks and four weeks after dosing starts, cardiac function (EF %) and structure (LVD) are evaluated by transthoracic echocardiography. Animals are further randomized to additional groups based on cardiac function (EF %) and structure (LVD) to the following groups: Placebo, Example 10, captopril and Example 10+captopril. Animals in the Example 10 groups receive a single injection on week 4 after the 2nd randomization. Cardiac function (EF %) and structure (LVD) are evaluated on week 5 and 6.
# [5] = Dose # 1: Example 1 10.65, WT NRG1 10, WT NRG4 17 μg/mL
# [6] = Dose # 2: Example 1 5.325, WT NRG1 5, WT NRG4 8.5 μg/mL
# [7] = Dose # 3: Example 1 2.6625, WT NRG1 2.5, WT NRG4 4.25 μg/mL
# [8] = Dose # 4: Example 1 1.33125, WT NRG1 1.25, WT NRG4 2.125 μg/mL
# [9] = Dose # 5: Example 1 0.665625, WT NRG1 0.625, WT NRG4 1.0625 μg/mL
# [10] = Dose # 6: Example 1 0.332813, WT NRG1 0.3125, WT NRG4 0.53125 μg/mL
# [11] = Dose # 7: Example 1 0.166406, WT NRG1 0.15625, WT NRG4 0.265625 μg/mL
# [12] = Dose # 8: Example 1 0.083203, WT NRG1 0.078125, WT NRG4 0.132813 μg/mL
# [13] = Dose # 9: Example 1 0.041602, WT NRG1 0.039063, WT NRG4 0.066406 μg/mL
# [14] = Dose # 10: Example 1 0.020801, WT NRG1 0.019531, WT NRG4 0.033203 μg/mL
# [15] = Dose # 11: Example 1 0.0104, WT NRG1 0.009766, WT NRG4 0.016602 μg/mL
# [16] = Dose # 12: Example 1 0.0052, WT NRG1 0.004883, WT NRG4 0.008301 μg/mL
# [17] = Week 4 (2nd randomization; before the single injection of Example 10)
# [18] = Week 5 (single injection of Example 10 on week 4; captopril 2 g/L in drinking water)
# [19] = Week 6 (single injection of Example 10 on week 4; captopril 2 g/L in drinking water)
Molecule,"O.D. 405, binding to HER4 extracellular domain [1, 5]","O.D. 405, binding to HER4 extracellular domain [1, 6]","O.D. 405, binding to HER4 extracellular domain [1, 7]","O.D. 405, binding to HER4 extracellular domain [1, 8]","O.D. 405, binding to HER4 extracellular domain [1, 9]","O.D. 405, binding to HER4 extracellular domain [1, 10]","O.D. 405, binding to HER4 extracellular domain [1, 11]","O.D. 405, binding to HER4 extracellular domain [1, 12]","O.D. 405, binding to HER4 extracellular domain [1, 13]","O.D. 405, binding to HER4 extracellular domain [1, 14]","O.D. 405, binding to HER4 extracellular domain [1, 15]","O.D. 405, binding to HER4 extracellular domain [1, 16]",inspections of tissue (cardiac toxicity) [2],duration of detectable plasma concentrations [3] [h],"Ejection Fraction [4, 17] [%]","Left Ventricle Diameter (end diastole) [4, 17]","Ejection Fraction [4, 18]","Left Ventricle Diameter (end diastole) [4, 18]","Ejection Fraction [4, 19]","Left Ventricle Diameter (end diastole) [4, 19]"
WT NRG1: wild type human NRG1; native peptide purchased from Reprokine in Tables 7-9; comparator in the screening assays of Tables 4 and 6,1.501,1.439,1.399,1.31,1.27,1.022,0.8,0.514,0.316,0.179,0.114,0.084,–,–,–,–,–,–,–,–
"WT NRG4: wild type human NRG4 (SEQ ID NO:1); parental hFcNRG4 in screening (Tables 4-6), native peptide from Reprokine in Tables 7-9 (DHEEPCGPSHKSFCLNGGLCYVIPTIPSPFCRCVENYTGARCEEVFL; listed as Homo sapiens)",0.651,0.597,0.485,0.347,0.224,0.154,0.111,0.088,0.071,0.07,0.066,0.066,–,–,–,–,–,–,–,–
B1,–,–,–,–,–,–,–,–,–,–,–,–,cardiac degeneration and necrosis,> 168,33.3,9.33,46.5* %,9.35,46.0* %,9.01
